# Experiment: soluble on expression in E. coli; label from the status in PepcDB or PDB records
row,Sequence,soluble on expression in E. coli
1,QGHMRATNVTYQAHHVSRNKRGQVVGTRGGFRGCTIWLTGLSGAGKTTVSMALEEYLVCHGIPCYTLDGDNIRQGLNKNLGFSPEDREENVRRIAEVAKLFADAGLVCITSFISPYTQDRNNARQIHEGASLPFFEVFVDAPLHVCEQRDVKGLYKKARAGEIKGFTGIDSEYEKPEAPELVLKTDSCDVNDCVQQVVELLNERDILP,soluble
2,QGHVGDHDSHEVMQRLDALLPTLRERAQETEDLRRIPDDSMKALQETGFFRLLQPEQWGGYQADPVLFYSAVRKIASACGSTGWVSSIIGVHNWHLALFSQQAQEDVWGNDTDVRISSSYAPMGAGQVVDGGYTVNGAWAWSSGCDHASWAVLGGPVIKDGRPVDFVSFLIPREDYRIDDVWNVVGLRGTGSNTVVVEDVFVPTHRVLSFKAMSNLTAPGLERNTAPVYKMPWGTIHPTTISAPIVGMAYGAYDAHVEHQGKRVRAAFAGEKAKDDPFAKVRIAEASSDIDAAWRQLSGNVADEYALLVAGEEVPFELRLRARRDQVRATGRAISSIDKLFESSGATALANGTPLQRFWRDAHAGRVHAANDPERAYVMYGTGEFGLPITDTMV,soluble
3,QGMRAFLRVVETGNFTRASASLNMPKATVTNLIQGLEAHLRTKLLNRTTRRVLVTPDGALYYERAARLLSDLDELDGSLSTAQSLPKGRLRVETASAFANLVIIPALPEFHKKYPDIQIDLGVSDRTIDYLAENVDCAIRAGTLTDQSLIARRITEMKFVACASRDFLERHPVPQHPSDLEKNCYVVGYFLPKTGQQMPFHFRRGNEEIEVSGRYTMAANESTTYLAAARAGLGVIQAPLFMVREDLRNGTMVPVLPDWQVEPMPIYLVYPPNRHLSSRLRVFADWVVKVMAQSQNGEGS,soluble
4,QHQEAGAGDLCALCGEHLYVLERLCVNGHFFHRSCFRCHTCEATLWPGGYEQHPGDGHFYCLQHLPQTD,soluble
5,QKLGDGHYVMDGKVRIDQVNSLLGASIQEDVDTIGGLILKENIDIEAGESIRIGSYTIKVLKMDGRLIKQIDIKEEAGNTTGITAHHKLPLPEPVMLNSATLSEK,not soluble
6,QKLVQLILDEIVEGGAKVEWTDIAGQDVAKQALQEMVILPSVRPELFTGLRAPAKGLLLFGPPGNGKTLLARAVATECSATFLNISAASLTSKYVGDGEKLVRALFAVARHMQPSIIFIDEVDSLLSERSSSEHEASRRLKTEFLVEFDGLPGNPDGDRIVVLAATNRPQELDEAALRRFTKRVYVSLPDEQTRELLLNRLLQKQGSPLDTEALRRLAKITDGYSGSDLTALAKDAALEPIRELNVEQVKCLDISAMRAITEQDFHSSLKRIRRSVAPQSLNSYEKWSQDYGDITIK,soluble
7,QKVTLVKKKQETVSIDAGIDRMRRAVRLLDRAEWVEVIDSVRTNKADLLSAYNLIADNGRLEWVKGNQGEATSFVNGRGDHAIMTEKGEDGVYSLHEAHRIGGKWGNAIPLEKLNSRFNENYPSLRADGFTLLFASDRPDGIGGYDLYMTRRDLEDGIFLEPTLLGMPFNSPYNDYLLVYDELRGIGFFASDRFCPADVVTVYTFVINEEGRPVATDDMALKRAYASLKSIRATQDPERDYSRLIASARDNRTDAEKKASERQIYFPMQGMRIYTRWSDFQSSEAKSLYQDVMARKRKLEQAATRLEELRLLYGRASALERSGMKQEILRLENAIPPLEEEVGRMEKEVRNMELQAVQGF,not soluble
8,QLIFDDCVFAFSGPVHEDAYDRSALETVVQDHGGLVLDTGLRPLFNDPFKSKQKKLRHLKPQKRSKSWNQAFVVSDTFSRKVKYLEALAFNIPCVHPQFIKQCLKMNRVVDFSPYLLASGYSHRLDCTLSQRIEPFDTTDSLYDRLLARKGPLFGKKILFIIPEAKSWQKKIENTEQGQKALAHVYHALALGADVEIRPNVAHLECDLILTMDGNIVDETNCPVVDPEWIVECLISQSDIST,soluble
9,QQEYMKVGKFSPESNRSRWLVTRGATMTTKDTTRNMTMNTNLGGYQVLEIFRKLETPEAVTAFEGLSIPEPGLEPRFCVREGEQEVPVTTRYTDEAFWQVFDFSFVAGKHYTEADARSNIAVAVITDRLARRFFGSSSEAVGRQALINGRKYTVCGVVRHVTPFCDFAYGDVWMPVFRLYEERVKNNLFSRFNVICLAKSPKDFDAIKEEVGALTAKCNSVQEKFNISFPGQPADQFTTMHRKFHRDDTEPLEYRRR,not soluble
10,QRRQMEMQSVNLVHEALSNQRLELFAQRVMNLQSPESLMYFEILVRIRDAQGNYVSPAIFIPASERYNIAHWIDKQVINQALEWFEQRPDVVEKLGRCSINLSGQSMGNQEFIDFLFERLKNSTMPCEKICLEITETAAMGNLDQAIDFFTRAKSLGCMIALDDFGSGLSSFGYLKKLPVDIVKIDGLFVRDIDVNEMDRVMVRSINDLAKQLGKVTVAEFVENEQVMQHLIDLGVDYGQGYGIGHPKPLAELVENLSSL,not soluble
11,QRSTFGTKHMVFRTDQLIDGIERNVRITSEEVNAALPVPLLDRQDPGAILISGSSYTEPSEALQTMREAMTQEKFSGSVEIPLGIVRALLDLGFTDEAASWLEDLVPRLGNEWRHQWYSGVTSLLLDDYLTAQQHFNEVYNILPGESAPKLARAAVCEMLLQEKGLESTALLDPAVTVAAADIKGEGMSNIWRELTSDPATLRFKAIYLYALVWRTNPTTVSSAFGLARQLAAENQIDLAVSTLDRVPQNSTHRRMAELTAILHLLGDLSEARLRRAARRLEAIPTNEPRFLQIQIAIMNAALQWLRTGGEAANDPIFEYPFTQRGLRNGLSATLRQLARSAPSSHRYALVDVANQVRPMTWF,not soluble
12,QTPVYLDTSKPIEERVKDALSRMTLEEKVKMTHAQSKFSSPGVPRLGIPEVWATDGPHGIRPEVLWDEWDQAGWTNDSCIAYPALTCLSATWNPEMSYLYGKSIGEEARYRKKDILLGPGVNIYRTPLNGRNFEYMGEDPYLSSMMVVPYIKGVQENGVAACVKHYALNNQEFNRHTTNVHLSDRALYEIYLPAFKAAVQEGGAWAIMGAYNLYSFSEDTDSGKLYKTQHACHNKRLLQDILRKEWGFDGVVVSDWGGVHDTFQAISNGLDMEFGSWTNGLSAGTRNAYDNYYLAHPYLKLIQDGTVGTKELDEKVSNILRLIFRTSMNPH,not soluble
13,QTSGFSVTSGPMDVDVVTSIPFAMVDEINESSPAAEGGLQLGDQVLKFGNVEGGDNLLQRLAAEAQSNQGQAVSVQVMRQ,soluble
14,QVPENNGYAGDKPLKTYIHDTVKGDLYYTAGSSYYSGKAYPGDTYKVNHNFDLPEGATIKLARLYNYWTWSSEGMEGRNPEMKLSFDGQELEPDREYSDRKGWGSYDYPSGTWAYDVSSCITGSGTFTTEIENTGPDASCVCIEGVGLLIVYEDPDGRNIEYWINEGADELNSQMDENGSPLYYTAPNQTICEMLRPALQFPIRSATLWTITQSGNWENNTLIVNDKKFTGICDGKPYPDLEIDKRNVTDCLKAGENIILFQASGDYVISSGSFLVVEKDLLAEESKSSTEEASEKSEETGSTPETSGTESKKAPGFGFVFAPALLTGRKLVSGLRDK,not soluble
15,QVQLVESGGGSVQAGGSLRLSCAASGFTYSRKYMGWFRQAPGKEREGVAAIFIDNGNTIYADSVQGRFTISQDNAKNTVYLQMNSLKPEDTAMYYCAASSRWMDYSALTAKAYNSWGQGTQVTVSSRGRHHHHHH,soluble
16,QVSLRESGGGLVQPGRSLRLSCTASGFTFRHHGMTWVRQAPGKGLEWVASLSGSGTKTHFADSVKGRFTISRDNSNNTLYLQMDNVRDEDTAIYYCAKAKRVGATGYFDLWGRGTLVTVSSASTKGPSVFPLAPSSKSTSGGTAALGCLVKDYFPEPVTVSWNSGALTSGVHTFPAVLQSSGLYSLSSVVTVPSSSLGTQTYICNVNHKPSNTKVDKKAEP,soluble
17,QYYDYDFPLSIYGQSSPNCAPECNCPESYPSAMYCDELKLKSVPMVPPGIKYLYLRNNQIDHIDEKAFENVTDLQWLILDHNLLENSKIKGRVFSKLKQLKKLHINHNNLTESVGPLPKSLEDLQLTHNKITKLGSFEGLVNLTFIHLQHNRLKEDAVSAAFKGLKSLEYLDLSFNQIARLPSGLPVSLLTLYLDNNKISNIPDEYFKRFNALQYLRLSHNELADSGIPGNSFNVSSLVELDLSYNKLKNIPTVNENLENYYLEVNQLEKFDIKSFCKILGPLSYSKIKHLRLDGNRISETSLPPDMYECLRVANEVTLN,not soluble
18,RADLQYLLNHPDPTEYKEKPLPYPFLTHWLHDIQEQTISKRLDESAGSAGEVSFIFVPCYLNRKDGIFGLGYYDLLIGMDLTVFPSYYEPWGYTPLES,not soluble
19,RAIGQIRSADGGRTVDVDLAQPLHDWRVLFNNLLPSHVLRGGDSDFSTVLADGIPASAGRYSFAGVDRQRGIVTLNRNDRFWGEKPATVENIKFREVTDIAQGRELLRTGQIKFLDITPTEVAREAFELMPNTQVRTTTTSLNLQLIANTHLTLEQRADLQSLIDVHTVARIAMGRSTDLGVGDQPYEPHADHLMSLGRPVRIGVDPSDPEAQMAARVLSDVLARKSVKTQLVETDTTDLIGSK,not soluble
20,RDRSTIARIQFRLPDGSSFTNQFPSDAPLEEARQFAAQTVGNTYGNFSLATMFPRREFTREDYKRRLLDLELAPSASVVLLPAGRPATSIVHSSSGDILMID,soluble
21,REHDFDDLKFEHFLASAAGAFPAFLEVAEKRIIGEGVLRAVKESMRWHRAENVHFGAFLLLVPLISSWDAGGMVDIAEAARNRLRRTDFRDSLSVLEAFRLSNARVVEAGELNLKDRKTEEEIAQKKINLYEWMKMAPEENLIARELVDGFKISIEGAKFLLSFGNSGKAVVELYYHLLSKFPDPLVIAKMGREYAEKITEWAEKARTEEERKELDEKLLKDGANPGTIADLTASSIFLALAEGWR,soluble
22,RGFAKIRDERARRDKIHNLIKRKLDPTKRFSSKQQRQLDRLTRESNLKPSELKETIREEVVEELAGAADGDDVDAVIDEAAGITTTYEPIEFEDTTVSVEDTSLGLPSHARPMSELEDLTTFEEDIAEEAATNTPADKPAAKH,not soluble
23,RGSGWFAGFPVYSWFFGRDGLWMALAANMVGLAGLTYEHTNMLLKYSDDGRIPHEIGLADDGDQGYTIGETKFNTMYMSIDSSPLWLLASASMENWDRSRFEERHLKKVFDFIASCDTDGDGLIENDFRRGLIGWPETWANIRNGKTVDVNALWIEVLRIFGYRFGYDEYQKIRDRYMSTFFAGANSVDFVDMEYHEIRSAMQFVPGIFMRNEAIRSRIKDLSAGMMTPWGIRSMSVYDPMYDGGYHTGTVWPLMTGWFVIAAYKNGLPDLAFNQMRTFVDLAFSADDPGRINETYDAMMPQPTGQFAQGWSSSMLLLSVLQGMLNIDPLS,not soluble
24,RIGIVVAAHGNSTASSMVQVVSQLLNVDNLKAVDMPLDMPPKEALRKIVEAVGEVNEENGVLLLVDMGSLSTFSEEIVRQTGIDVRTVDMVTTPIVLEAARKTALIDTQLETLHESLKNFHGYADIRQSETKQ,soluble
25,RILDIDPVAQTAVVEPGVVCDALRDAAAEFGLTYGPDPSTHSRCTIGGMVANNACGSHSVAFGTAAENLVDVTLMLSDGREVTVTKDGCDDAEINQKLTDLASKNQDLISKELGRFPRQVSGYGLHYLAHDMAKAMAGTEGTIGIITRLTVKLVPTP,not soluble
26,RIPVVGITGSKGMTTIARFVASLLTLSGRRTGLACSSGLYLDHRKIDHGNCANHKSARRILMNRTVEAAVFENGFDTMLEEGLPYDSCQVGIVTRIEPALHFAHQWIDTSEQVFKVLRTQVDVVSPTGGKREGDILPEIILPTGAAILNAQDPMLVQMADLCQGEVIYISCDPTLPVISVHRQEGTGPTRGKRAVTVRNWEILLIDGTAETILIRLDELQAKTGNHPVETAHLLAGVGAGWALGMSPDLIRTGLITFLQHQEKQSIVYQTF,not soluble
